Assay results taken from publication PMC5505021.

Target: heat shock protein 90β (African green monkey (endogenous in Vero))
Test: flow cytometry on cells

Japanese encephalitis virus strain SA14, purified viral particles (complex)
percentage of HSP90β-JEV binding by FCM (0 μg/ml anti-HSP90β mAb): 76.2% | percentage of HSP90β-JEV binding by FCM (with 20 μg/ml anti-HSP90β mAb): 19.1% | percentage of HSP90β-JEV binding by FCM (with 100 μg/ml anti-HSP90β mAb): 10.4%
